In doi:10.1101/2025.06.13.659133:

Target: dual specificity anti-activin A/B antibody (human IgG1 format) (human)
Assay: BLI

B1: mature human activin A (ligand)
chain: GLECDGKVNICCKKQFFVSFKDIGWNDWIIAPSGYHANYCEGECPSHIAGTSGSSLSFHSTVINHYRMRGHSPFANLKSCCVPTKLRPMSMLYYDDGQNIIKKDIQNMIVEECGCS
In the case of B1, the Kd is reported as 130 pM.
